According to US20230248800A1 (PHARMAIN, published 2023):
Where two headings read alike, the source gives them in different places. Values belong to the binder of their own block, whether it stands above or below them.

Columns and labels:
human V1a receptor [1] = molecular target: T1, human V1a receptor (human, UniProt P37288 1-418); assay: cell-based or functional assay
human V1a receptor [2] = molecular target: T1, human V1a receptor; assay: cell-based or functional assay; remark: listed apart in the source

T1 sequence (P37288 whole entry): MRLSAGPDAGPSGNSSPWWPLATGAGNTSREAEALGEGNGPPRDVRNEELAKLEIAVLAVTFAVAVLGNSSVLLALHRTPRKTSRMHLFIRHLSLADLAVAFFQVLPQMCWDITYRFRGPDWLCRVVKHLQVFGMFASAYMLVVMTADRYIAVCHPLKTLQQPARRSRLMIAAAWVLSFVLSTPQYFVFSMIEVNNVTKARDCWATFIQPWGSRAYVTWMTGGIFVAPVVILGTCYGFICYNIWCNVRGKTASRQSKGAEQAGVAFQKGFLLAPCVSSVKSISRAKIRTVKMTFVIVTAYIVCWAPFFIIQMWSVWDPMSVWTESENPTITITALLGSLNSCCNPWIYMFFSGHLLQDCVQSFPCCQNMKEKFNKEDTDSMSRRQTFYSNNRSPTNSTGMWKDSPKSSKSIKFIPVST

Estimated V1a EC50 (calcium flux) (human V1a receptor [1]): 1.34 µM
V1a Highest agonist effect (% of AVP) (human V1a receptor [1]): 7.5 % of AVP
B2: Mpa-Tyr-Phe-Hgn-Asn-Cys-Pro-Lys(X)a-Gly-NH2; (X)a = Dap [SEQ ID NO. 29] (peptide)
peptide: XFXNCPXG
modifications: Mpa at position 1, disulfide bond between Mpa and Cys; Hgn at position 4; Dap on the side chain of Lys 8; C-terminal amide

Estimated V1a EC50 (calcium flux) (human V1a receptor [1]): > 10 µM
V1a Highest agonist effect (% of AVP) (human V1a receptor [1]): 40 % of AVP
B5: Mpa-Tyr-Phe-Hgn-Asn-Cys-Pro-Lys(X)a-Gly-NH2; (X)a = (Gly)9-Ac [SEQ ID NO. 26] (peptide)
peptide: XFXNCPXG
modifications: Mpa at position 1, disulfide bond between Mpa and Cys; Hgn at position 4; (Gly)9-Ac on the side chain of Lys 8; C-terminal amide

Estimated V1a EC50 (calcium flux) (human V1a receptor [1]): > 10 µM
V1a Highest agonist effect (% of AVP) (human V1a receptor [1]): 30 % of AVP
B9: Mpa-Tyr-Phe-Hgn-Asn-Cys-Pro-Lys(X)a-Gly-NH2; (X)a = Ac [SEQ ID NO. 28] (peptide)
peptide: XFXNCPXG
modifications: Mpa at position 1, disulfide bond between Mpa and Cys; Hgn at position 4; acetyl (Ac) on the side chain of Lys 8; C-terminal amide

Estimated V1a EC50 (calcium flux) (human V1a receptor [1]): > 10 µM
B10: Mpa-Tyr-Phe-Hgn-Asn-Cys-Pro-Lys(X)a-Gly-NH2; (X)a = Lauric acid [SEQ ID NO. 27] (peptide)
peptide: XFXNCPXG
modifications: Mpa at position 1, disulfide bond between Mpa and Cys; Hgn at position 4; lauric acid on the side chain of Lys 8; C-terminal amide

Second part, the binder before the results:

B1: Mpa-Tyr-Phe-Hgn-Asn-Cys-Pro-dLys-Gly-NH2 (note: dLys = D-Lys) [SEQ ID NO. 18] (peptide)
peptide: XFXNCPKG
modifications: Mpa at position 1, disulfide bond between Mpa and Cys; Hgn at position 4; D-Lys at position 8; C-terminal amide
Estimated V1a EC50 (calcium flux) (human V1a receptor [1]): > 10 µM
V1a Highest agonist effect (% of AVP) (human V1a receptor [1]): 0.2 % of AVP

B3: Mpa-Tyr-Phe-Hgn-Asn-Cys-Pro-Lys(12-aminododecanoic acid)-Gly-NH2 [SEQ ID NO. 19] (peptide)
peptide: XFXNCPXG
modifications: Mpa at position 1, disulfide bond between Mpa and Cys; Hgn at position 4; 12-aminododecanoic acid on the side chain of Lys 8; C-terminal amide
Estimated V1a EC50 (calcium flux) (human V1a receptor [1]): > 10 µM
V1a Highest agonist effect (% of AVP) (human V1a receptor [1]): 2.5 % of AVP

B4: Mpa-Tyr-Phe-Gln-Asn-Cys-Pro-Lys(X)a-Gly-NH2; (X)a = (Gly)9 [SEQ ID NO. 23] (peptide)
peptide: XFQNCPXG
modifications: Mpa at position 1, disulfide bond between Mpa and Cys; (Gly)9 on the side chain of Lys 8; C-terminal amide
Estimated V1a EC50 (calcium flux) (human V1a receptor [2]): 12.6 nM

B6: Mpa-Tyr-Phe-Gln-Asn-Cys-Pro-Lys(X)a-Gly-NH2; (X)a = (Gly)6 [SEQ ID NO. 20] (peptide)
peptide: XFQNCPXG
modifications: Mpa at position 1, disulfide bond between Mpa and Cys; (Gly)6 on the side chain of Lys 8; C-terminal amide
Estimated V1a EC50 (calcium flux) (human V1a receptor [2]): 27.3 nM

B7: Mpa-Tyr-Phe-Hgn-Asn-Cys-Pro-Dap-Gly-NH2 [SEQ ID NO. 17] (peptide)
peptide: XFXNCPXG
modifications: Mpa at position 1, disulfide bond between Mpa and Cys; Hgn at position 4; Dap at position 8; C-terminal amide
Estimated V1a EC50 (calcium flux) (human V1a receptor [1]): > 10 µM
V1a Highest agonist effect (% of AVP) (human V1a receptor [1]): 3.5 % of AVP

B8: Mpa-Tyr-Phe-Hgn-Asn-Cys-Pro-Lys-Gly-NH2 [SEQ ID NO. 25] (peptide)
peptide: XFXNCPKG
modifications: Mpa (mercaptopropionic acid) at position 1, disulfide bond between Mpa and Cys; Hgn (homoglutamine) at position 4; C-terminal amide
Estimated V1a EC50 (calcium flux) (human V1a receptor [1]): 0.0052 µM
V1a Highest agonist effect (% of AVP) (human V1a receptor [1]): 42.8 % of AVP
